Reference: the supplement of paper PMC12042874
± gives the uncertainty stated by the source.

assay: amyloid nucleation score (Sup35N fusion, yeast selection) (log enrichment); library NNK1; higher = more nucleation; inactive = no reads after selection
Outline: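 Plasmid inserts were Illumina-sequenced at input and output from psi-negative yeast expressing Sup35N fused to peptides of 20 random codons. The yeast were induced with 100 μM copper sulfate for 24 hours and grown 7 days at 30°C on medium lacking adenine and uracil, and sequences with under 100 input reads were excluded. Nucleation score is the DiMSum log enrichment of output over input reads, centred on the mode score of non-aggregating sequences.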

| Substance | amyloid nucleation score |
| --- | --- |
| RNSMQILASLNNMDQRPLWR | 1.51 ± 0.51 |
| RNWREVSYMIQVGW | -0.186 ± 0.29 |
| RPCNEGFWLHNHGRSNSSSS | -0.462 ± 0.52 |
| RPKSEISSNFLVDMGFYREM | 0.808 ± 0.88 |
| RPSTLCFTIIRVYKLSRSPT | 2.65 ± 0.074 |
| RQEVKAMGRFTATSLGTHSR | 0.399 ± 0.47 |
| RQLKVARTGLWLGFTFCIQE | 0.24 ± 0.89 |
| RQLTSVCYKSVDGE | 0.516 ± 0.93 |
| RQVPGIKCKSFTLYFADITL | 3.85 ± 0.1 |
| RRCCNVERGSAKVALTV | -0.153 ± 1.3 |
| RRDDVCELLVIP | 0.351 ± 0.51 |
| RRIFRYSMNNLNVFVYNRFP | -0.277 ± 0.51 |
| RRLLISPMTYVSDLASIQGC | 0.175 ± 0.26 |
| RRPIGMACGDGRVYFWDHTA | -0.036 ± 0.47 |
| RRRCYVVSCCLVALACLACF | 0.412 ± 0.8 |
| RRREKHAMDPELRARGQQ | -0.106 ± 0.73 |
| RRSESGKCFDLLSSSLSVIN | -0.786 ± 0.73 |
| RRSSILVNTGYPDLGYVMGD | -1.18 ± 1.3 |
| RRTLSSGVSLYCYPKLGVAR | -0.24 ± 0.53 |
| RSDDKVSRSVGDHCTVGVLR | 6.441 ± 0.061 |
| RSEVEFNTPHLLKCVPDMSF | 0.587 ± 0.42 |
| RSFVNARSSYDVGFFGWNGC | 2.29 ± 0.14 |
| RSFVSEGYFGCWDRDTDYTD | -0.894 ± 1.2 |
| RSLLHCYHNKWMSVRTAFSP | 0.642 ± 0.66 |
| RSMGKIMIRENQRSLVMLSH | 0.522 ± 0.57 |

| Substance | amyloid nucleation score |
| --- | --- |
| RSMWICLWACYNLMVIRWPG | -0.446 ± 0.54 |
| RSNPMTVMVSCLDEVVS | -0.536 ± 0.49 |
| RSPHVAGYNMKAGSDRSNIT | 0.052 ± 0.26 |
| RSQNLGGVFGET | -0.066 ± 0.41 |
| RSQRGRPWEGGLSTSLGVRR | -0.736 ± 1.2 |
| RSQVSSFTYSPSRATPKRRL | 0.508 ± 0.5 |
| RSRLLSFGVNGGWYIKMLIS | -0.028 ± 0.61 |
| RSRNSPTR | -0.027 ± 0.37 |
| RSSCKTTLEIIGVLRMRVYA | 0.769 ± 0.45 |
| RSTGTGTICV | inactive |
| RSVPLFDHPWNRVTLRFSIL | 0.714 ± 0.47 |
| RSWDRYMFGRNRCVDWGR | 0.107 ± 0.9 |
| RSYSTCFPLIVLSK | 0.303 ± 0.28 |
| RTCDIRSLHPTTEGSETCGR | 0.306 ± 0.56 |
| RTGPLSVASGAVPYGYQPWL | -0.203 ± 0.62 |
| RTINYTAMWCYS | 0.721 ± 0.41 |
| RTLGDSNGNNVGLQVVPKCL | -0.108 ± 0.31 |
| RTSPN | -0.141 ± 0.37 |
| RTVTWEMQKVDWSLWSCRWL | 2.56 ± 0.17 |
| RVILFFRFIAILEDCATVSF | -0.544 ± 0.25 |
| RVLCCRYN | 0.19 ± 0.51 |
| RVLLSSVSDM | -0.766 ± 2.4 |
| RVLVDPRSSFVYSTRFDDD | 0.2 ± 0.45 |
| RVNTETMITGESGMSIDELM | 1.03 ± 0.76 |
| RVRILITYM | 1.18 ± 0.17 |

| Substance | amyloid nucleation score |
| --- | --- |
| RVRLVWSSCQGDEGFYGLCP | 1.36 ± 0.18 |
| RVRVSLTWQLISLVVMSEYR | 0.809 ± 0.64 |
| RVTVTLFYMFNNRGEGKSQA | 3.44 ± 0.12 |
| RVVLCDI | 0.261 ± 0.75 |
| RVVPGGRLRYVNMVF | 1.26 ± 0.67 |
| RVVSCMTSRMLWSMRDPIYY | 0.217 ± 0.41 |
| RVVWVVFGWGLIHLGGLLCG | 0.146 ± 0.81 |
| RVWCKWH | 0.027 ± 1.4 |
| RVWMGFDWIEDESRLDSTM | 0.21 ± 0.82 |
| RWAVLACFCMGD | 0.434 ± 0.81 |
| RWFYSCDVVAFKGH | 0.584 ± 0.84 |
| RWIPQNMHQLWKASDGNERM | -0.697 ± 0.41 |
| RWKRVIMSQHQVVYVNSWMV | -0.484 ± 1.9 |
| RWLDYYADNARHVSQTLRRR | -0.575 ± 0.64 |
| RWLGRRMRAGFAYGAFRTGY | 0.054 ± 0.8 |
| RWVPYHFV | 2.77 ± 0.13 |
| RWYSHFSAMQWGATLCFWGL | 2.64 ± 0.11 |
| RYAWVTMVVYACLQLGSASR | 0.678 ± 0.21 |
| RYGGRCNTR | 0.016 ± 1.7 |
| RYIPARGVNGGYSVVVRHLG | -0.436 ± 0.38 |
| RYKNSIDSESVINRLLWDAT | 0.431 ± 0.8 |
| RYKWMYFCFHLIMVGNRMSA | inactive |
| RYMLHDLIFPVSVVMRVSYE | 0.92 ± 0.22 |
| RYMWYLVCS | 0.026 ± 0.7 |
| RYNAILAWCSLRKTGVYFLV | 1.09 ± 1 |

| Substance | amyloid nucleation score |
| --- | --- |
| RYNTPNGVYICLNA | -1.03 ± 0.39 |
| RYPTGAKKLQMLNDVLMLYR | -0.479 ± 0.3 |
| RYRSMHHFRVHDKHPMLGYA | 1.34 ± 0.84 |
| RYRSVVIPRVHAIEVIYAAC | -0.378 ± 0.97 |
| RYTLFCLSVNYWWTFWLDSV | 1.61 ± 0.58 |
| RYVCTESESVDLSQMAVIMS | 1.13 ± 0.4 |
| RYVPVATKSSTGMSYWDIMV | 0.194 ± 0.38 |
| RYWSRQRLTDVYVFRLDMSR | -2.07 ± 2.4 |
| SAAGT | 0.49 ± 0.66 |
| SAGHLNYNEWLNGCGDRGKC | -0.367 ± 0.53 |
| SARYL | 0.496 ± 0.7 |
| SARYLMEFWKVHIKAYIMSF | 0.099 ± 0.79 |
| SAVGAIDANIYKSDGYSWG | -0.879 ± 0.58 |
| SCAASGNLYVSSAGGVRGKR | -0.734 ± 0.46 |
| SCACRYSDLVWVINSLRTVA | 0.46 ± 0.83 |
| SCHRPVPSRASSEKILGIAC | 0.157 ± 1.4 |
| SCILFY | 1.75 ± 0.14 |
| SCKPGPIVSLDFVFVVYPWE | 0.002 ± 0.9 |
| SCLMY | inactive |
| SCPTMYSYVFWVRFQSGTAS | 1.72 ± 0.13 |
| SCRSGRRRPLPTGGPILATN | -0.015 ± 0.64 |
| SCTYSIFCDNISRTLGH | -0.287 ± 0.26 |
| SCWNSCNKMSF | 2.87 ± 0.24 |
| SDALTKMDLITLRDKI | inactive |
| SDELVQSTASGLFYASMGFK | 1.75 ± 0.76 |

| Substance | amyloid nucleation score |
| --- | --- |
| SDFNLDSSGMKRVKSRV | 0.817 ± 0.69 |
| SDLWLLECWTLDICGWLKAT | 0.992 ± 0.58 |
| SDMFSLNYSFDERTFWKQTS | inactive |
| SDNYVKAYVRVRRVMTKGGS | -0.579 ± 0.58 |
| SDSGPTALNVYFPGTCQGNS | inactive |
| SDVSYLVNSSNVGLWHL | 0.467 ± 0.4 |
| SDWGGVMVDRGSGW | 1.36 ± 0.47 |
| SEIPVNGLARLCRGRYRNRQ | 4.66 ± 0.11 |
| SEKGCYYIGSLTGR | 0.184 ± 1.2 |
| SEMSLSRDSCLLSIV | 0.141 ± 0.18 |
| SFARVWVWSACA | -0.559 ± 0.49 |
| SFCVRQSTVFLMMSWECFRY | 1.19 ± 0.8 |
| SFEFGSSGRICVCIMFPVER | 1.08 ± 0.56 |
| SFESVVIVLKLNALFPCVST | -0.048 ± 0.28 |
| SFFSSVVDF | 0.2 ± 0.63 |
| SFGVSNTSYWTAEKVVGYAT | 0.501 ± 0.7 |
| SFKRYRRYRSKRVRRIGRGR | 0.677 ± 0.52 |
| SFLLYGLFAYVSAYIRDICA | -0.166 ± 0.38 |
| SFLSVFAMFYVQLPCHNMVS | -0.15 ± 0.64 |
| SFNVKVAHGLIRFSPDICYQ | 4.47 ± 0.13 |
| SFRAKDG | inactive |
| SFREHGRSSNRP | 0.423 ± 1.4 |
| SFSLMGRFRSFMYACIVAAC | -0.936 ± 0.57 |
| SFYCSHEVYLCNALYIDRVR | 3.67 ± 0.098 |
| SFYLIPPSCGYISHFGISTG | inactive |
